Reference: US20190055293

Test system: insulin

| Substance | insulin disulfide reductase activity (turbidity, optical density at A595 nm) |
| --- | --- |
| Thioredoxin protein | The addition of RdCVF (LF) or Trx1 resulted in an increase in optical density at A595 nm |
| purified RdCVF(LF) protein (human rod-derived cone viability factor, long form) | The addition of RdCVF (LF) or Trx1 resulted in an increase in optical density at A595 nm |
